Assay results from patent publication US20050272633A1.

Target: endogenous NIK of mouse embryonic fibroblast cells (mouse) (UniProt Q9WUL6)
Experiment: cell-based or functional assay

endogenous NIK of mouse embryonic fibroblast cells (mouse), sequence (Q9WUL6 whole entry): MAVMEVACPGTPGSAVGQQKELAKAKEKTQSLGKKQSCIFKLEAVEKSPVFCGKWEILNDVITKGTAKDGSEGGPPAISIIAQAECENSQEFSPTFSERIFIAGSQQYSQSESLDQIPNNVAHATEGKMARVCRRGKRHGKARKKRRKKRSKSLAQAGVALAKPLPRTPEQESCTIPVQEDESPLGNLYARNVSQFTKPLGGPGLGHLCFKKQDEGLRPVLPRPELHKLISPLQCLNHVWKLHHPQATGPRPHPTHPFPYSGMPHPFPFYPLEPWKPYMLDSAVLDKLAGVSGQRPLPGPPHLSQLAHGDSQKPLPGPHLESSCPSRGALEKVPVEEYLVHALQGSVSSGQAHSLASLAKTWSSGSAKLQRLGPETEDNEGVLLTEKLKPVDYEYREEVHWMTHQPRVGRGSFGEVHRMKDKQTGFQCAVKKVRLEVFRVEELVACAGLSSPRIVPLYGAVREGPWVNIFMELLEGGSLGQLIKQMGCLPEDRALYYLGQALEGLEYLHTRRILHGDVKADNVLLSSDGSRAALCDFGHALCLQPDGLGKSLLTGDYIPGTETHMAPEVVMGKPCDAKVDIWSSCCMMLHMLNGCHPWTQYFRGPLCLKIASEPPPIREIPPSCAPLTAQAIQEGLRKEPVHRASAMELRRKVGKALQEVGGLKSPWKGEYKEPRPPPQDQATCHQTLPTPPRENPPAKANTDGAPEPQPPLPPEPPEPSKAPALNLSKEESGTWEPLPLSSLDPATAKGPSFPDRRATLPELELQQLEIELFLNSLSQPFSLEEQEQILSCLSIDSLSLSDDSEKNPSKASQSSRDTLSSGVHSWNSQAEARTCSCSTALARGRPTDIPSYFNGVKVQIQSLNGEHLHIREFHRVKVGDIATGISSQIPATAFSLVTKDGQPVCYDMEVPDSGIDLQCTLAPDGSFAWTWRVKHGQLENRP

NF-κB activation by LTβ, luciferase reporter assay, mouse embryonic fibroblast cell line [fold]	decrease in NF-κB activation by LTβ, luciferase reporter assay, mouse embryonic fibroblast cell line [%]	Substance
2.5		GST fusion protein with the intracellular domain of cγc (pGSTICcγc) (from UniProt P31785 284-369)
	50	GST-41MDD fusion protein (from UniProt P31785 329-369)
